Reference: patent publication US20190144498A1 (Johns Hopkins, published 2019)
* marks the point of attachment. B(OH)2 = OB(O)*

Target: T1, endogenous GlpG in living E. coli cells (Escherichia coli, UniProt P09391 1-276)
T1 sequence (looked up): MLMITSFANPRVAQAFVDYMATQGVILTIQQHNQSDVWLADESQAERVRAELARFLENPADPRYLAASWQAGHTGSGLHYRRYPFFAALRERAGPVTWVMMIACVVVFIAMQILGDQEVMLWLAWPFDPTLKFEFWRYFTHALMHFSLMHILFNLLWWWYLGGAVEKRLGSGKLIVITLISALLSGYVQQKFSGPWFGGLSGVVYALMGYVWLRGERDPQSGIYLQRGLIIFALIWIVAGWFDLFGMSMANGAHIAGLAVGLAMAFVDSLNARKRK
Assay: cell-based or functional assay

B1: Ac-VRMA-B(OH)2 (peptide)
peptide: Ac-VRMA-{B(OH)2}
SMILES: CSCC[C@H](NC(=O)[C@H](CCCNC(=N)N)NC(=O)[C@@H](NC(C)=O)C(C)C)C(=O)N[C@@H](C)C(=O)B(O)O
B1 was tested, and the “EC50 of inhibition of endogenous GlpG activity (TatA-Flag cleavage) in living E. coli cells” value was < 1000 nM, the “fold increase in potency of GlpG inhibition relative to the aldehyde (Ac-VRMA-CHO)” value was > 100 fold and the “fold increase in potency of GlpG inhibition relative to the chloromethylketone (Ac-VRMA-CMK)” value was > 400 fold.
